Where a chain is given by its changes, count along the chain named.
T1: mouse NPR1 extracellular domain expressed with a C-terminal mouse IgG2a (mNPR1-mFc) (mouse)
T1 chain: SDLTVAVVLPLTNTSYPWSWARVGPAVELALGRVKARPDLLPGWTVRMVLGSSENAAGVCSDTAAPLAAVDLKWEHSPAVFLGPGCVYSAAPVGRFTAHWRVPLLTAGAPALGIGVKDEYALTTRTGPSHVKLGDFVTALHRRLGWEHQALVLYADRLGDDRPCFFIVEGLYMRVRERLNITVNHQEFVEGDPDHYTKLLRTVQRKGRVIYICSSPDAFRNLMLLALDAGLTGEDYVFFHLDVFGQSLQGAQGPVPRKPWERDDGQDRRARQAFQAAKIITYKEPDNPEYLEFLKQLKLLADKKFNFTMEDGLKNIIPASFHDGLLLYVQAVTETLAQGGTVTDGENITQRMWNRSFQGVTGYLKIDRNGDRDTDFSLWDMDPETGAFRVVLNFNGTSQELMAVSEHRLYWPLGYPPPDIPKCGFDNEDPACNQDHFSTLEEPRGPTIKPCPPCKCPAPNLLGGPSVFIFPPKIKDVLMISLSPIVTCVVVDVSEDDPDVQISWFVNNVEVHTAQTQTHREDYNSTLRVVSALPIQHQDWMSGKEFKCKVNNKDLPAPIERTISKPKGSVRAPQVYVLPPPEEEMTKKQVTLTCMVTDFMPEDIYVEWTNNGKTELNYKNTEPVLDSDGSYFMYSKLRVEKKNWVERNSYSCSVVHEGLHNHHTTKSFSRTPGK

T2: human NPR1 extracellular domain expressed with a C-terminal mouse IgG2a (hNPR1-mFc) (human)
T2 construct: also called hNPR1-Fc; human NPR1 dimer
T2 chain: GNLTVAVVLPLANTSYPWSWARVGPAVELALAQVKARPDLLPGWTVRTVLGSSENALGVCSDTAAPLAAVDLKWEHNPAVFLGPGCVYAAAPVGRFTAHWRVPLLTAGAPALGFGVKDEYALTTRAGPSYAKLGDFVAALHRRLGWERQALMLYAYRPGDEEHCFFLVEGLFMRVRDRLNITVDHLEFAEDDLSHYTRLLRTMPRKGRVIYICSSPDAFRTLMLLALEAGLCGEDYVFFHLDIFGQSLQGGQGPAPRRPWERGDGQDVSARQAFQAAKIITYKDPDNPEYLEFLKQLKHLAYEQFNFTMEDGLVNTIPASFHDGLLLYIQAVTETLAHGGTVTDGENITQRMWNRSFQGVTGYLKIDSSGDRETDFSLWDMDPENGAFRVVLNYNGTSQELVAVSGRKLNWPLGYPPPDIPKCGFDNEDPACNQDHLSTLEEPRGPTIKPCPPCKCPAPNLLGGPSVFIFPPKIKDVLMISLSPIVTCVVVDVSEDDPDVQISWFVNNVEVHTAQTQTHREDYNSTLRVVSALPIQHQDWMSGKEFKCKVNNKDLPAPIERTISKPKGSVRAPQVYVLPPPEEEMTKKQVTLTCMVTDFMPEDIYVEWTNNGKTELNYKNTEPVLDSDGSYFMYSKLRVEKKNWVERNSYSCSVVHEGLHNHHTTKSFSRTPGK

T3: monkey NPR1 extracellular domain expressed with a C-terminal myc-myc-hexahistidine (mfNPR1-MMH) (monkey, UniProt P16066 33-473 (human entry))
T3 construct: also called monomeric monkey NPR1
T3 chain: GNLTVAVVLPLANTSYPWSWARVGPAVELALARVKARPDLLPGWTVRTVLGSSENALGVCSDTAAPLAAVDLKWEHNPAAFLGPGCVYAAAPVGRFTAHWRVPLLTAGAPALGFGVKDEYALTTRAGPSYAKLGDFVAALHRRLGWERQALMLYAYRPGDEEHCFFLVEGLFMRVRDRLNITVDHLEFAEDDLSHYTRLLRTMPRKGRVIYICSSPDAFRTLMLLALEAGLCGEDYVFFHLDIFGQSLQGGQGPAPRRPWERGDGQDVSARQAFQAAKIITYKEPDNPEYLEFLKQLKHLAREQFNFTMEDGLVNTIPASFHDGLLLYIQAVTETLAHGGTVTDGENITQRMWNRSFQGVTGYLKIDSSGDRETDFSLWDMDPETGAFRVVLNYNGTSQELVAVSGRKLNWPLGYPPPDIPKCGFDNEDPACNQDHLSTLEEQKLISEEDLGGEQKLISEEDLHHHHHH

B1: mAb25479 (antibody, V domains shown)
VH: QVQLVQSGAEVKKPGASVKVSCKASGYTFTGYYIHWVRQAPGQGLEWMGWINPNSIGTNYAQKFQGRVTLTRDTSISTAYMELSSLRSDDTAVYYCARGGSSSYYYYYYGMDVWGQGTTVTVSS
VL: DIQMTQSPSSLSASVGDRVTITCRASQSIDNYLNWYQQKPGKAPKLLIYVASSLQSGVPSRFSGSGSGTDFTLTISSLQPEDFATYYCQQSYSTPLTFGGGTKVEIK
B2: mAb25497 (antibody, V domains shown)
VH: QVQLVQSGAEVKEPGASVKVSCKASGYTFTDYYIHWVRQAPGQGLEWMGWINLNSGGKNHAQKFQGRVTVTSDTSINTAYIELGRLRGDDTAVYYCSRGGGSHYYYYYHGMDVWGQGTTVTVSS
VL: B1 VL with V19I, Q27H, N31S, V50P, S53T, F83S, T85I
B3: mAb25491 (antibody, V domains shown)
VH: QVQLVQSGAEVMKPGASVKVSCKASGYTFTGYYIHWVRQAPGQGLEWMGWITPNSGATNYAQKFQGRVTLTRDTSISTAYMELTRLKSDDTAVYYCARGGQLEFFYYYYGMDVWGQGTTVTVSS
VL: DIQMTQSPSSLSASAGDRVTITCRASQSIDSYLNWYQQKPGKAPKLLISATSGFQSGVPSRFSGSGSGTDFTLTISSLQPEDFGTYYCQQSYTTPITFGQGTRLEIK
B4: mAb22805 (antibody, V domains shown)
VH: QVQLVESGGGVVQPGRSLRLSCAASGFTFSTYGMHWVRQAPGKGLEWVALIWNDGSNKYYADSVKGRFTISRDNSKNTLDLQMNSLRAEDTAVYYCARLNTRITGTTNLDYWGQGTLVTVSS
VL: DIQMTQSPSSLSASVGDRVTVSCRASQSIANYLNWYQQKPGKAPNLLIYGAYTLQSGVPSRFRGSGSGTDFTLTISSLQPEDFATYYCQQTYSTPPITFGQGTRLEIK

Key:
[1] = molecular target: T1, mouse NPR1 extracellular domain …; experiment: SPR, Tables 21 to 26
Description: (§1) Equilibrium dissociation constant (KD) for different NPR1 reagents binding to purified anti-NPR1 monoclonal antibodies (mAbs) were determined using a real-time surface plasmon resonance based Biacore 4000 biosensor. All binding studies were performed in 10 mM HEPES, 150 mM NaCl, 3 mM EDTA, and 0.05% v/v Surfactant Tween-20, pH 7.4 (HBS-ET) running buffer at 25° C. and 37° C. The Biacore CM5 sensor chip surface was first derivatized by amine coupling with either mouse anti-human Fc specific mAb (GE Healthcare, #BR100839) or goat anti-human Fcy specific polyclonal antibody (Jackson ImmunoResearch Laboratories, #BR-1008-39) to capture anti-NPR1 mAbs.

[2] = molecular target: T4, human NPR1 extracellular domain expressed with a C-terminal myc-myc-hexahistidine (hNPR1-MMH) (human, UniProt P16066 33-473); experiment: SPR, mAb captured, 25 C
T4 construct: also called hNPR.mmh; monomeric human NPR1
Description: as §1

[3] = molecular target: T5, mouse NPR1 extracellular domain expressed with a C-terminal myc-myc-hexahistidine (mNPR1-MMH) (mouse, UniProt P18293 29-469); experiment: SPR, mAb captured, 25 C
Description: as §1

[4] = molecular target: T2, human NPR1 extracellular domain …; experiment: SPR, mAb captured, 25 C
Description: as §1

[5] = molecular target: T3, monkey NPR1 extracellular domain …; experiment: SPR, mAb captured, 25 C
Description: as §1

[6] = molecular target: T4, human NPR1 extracellular domain …; experiment: SPR, mAb captured, 37 C
Description: as §1
Target sequence in this assay (P16066 other isoform, or with tags, fused parts or gaps): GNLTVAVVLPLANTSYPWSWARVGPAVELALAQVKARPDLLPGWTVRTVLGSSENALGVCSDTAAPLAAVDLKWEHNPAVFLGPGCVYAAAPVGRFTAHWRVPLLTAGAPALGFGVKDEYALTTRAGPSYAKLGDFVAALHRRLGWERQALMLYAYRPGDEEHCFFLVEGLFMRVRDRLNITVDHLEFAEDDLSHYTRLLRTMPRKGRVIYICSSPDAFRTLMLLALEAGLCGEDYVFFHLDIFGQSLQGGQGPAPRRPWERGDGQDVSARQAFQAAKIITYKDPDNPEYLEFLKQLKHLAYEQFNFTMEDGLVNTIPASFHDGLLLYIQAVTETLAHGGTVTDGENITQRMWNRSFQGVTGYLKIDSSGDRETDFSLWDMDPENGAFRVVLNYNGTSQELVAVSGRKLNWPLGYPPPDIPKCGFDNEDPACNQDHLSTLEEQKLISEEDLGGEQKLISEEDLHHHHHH

[7] = molecular target: T5, mouse NPR1 extracellular domain …; experiment: SPR, mAb captured, 37 C
Description: as §1
Target sequence in this assay (P18293 other isoform, or with tags, fused parts or gaps): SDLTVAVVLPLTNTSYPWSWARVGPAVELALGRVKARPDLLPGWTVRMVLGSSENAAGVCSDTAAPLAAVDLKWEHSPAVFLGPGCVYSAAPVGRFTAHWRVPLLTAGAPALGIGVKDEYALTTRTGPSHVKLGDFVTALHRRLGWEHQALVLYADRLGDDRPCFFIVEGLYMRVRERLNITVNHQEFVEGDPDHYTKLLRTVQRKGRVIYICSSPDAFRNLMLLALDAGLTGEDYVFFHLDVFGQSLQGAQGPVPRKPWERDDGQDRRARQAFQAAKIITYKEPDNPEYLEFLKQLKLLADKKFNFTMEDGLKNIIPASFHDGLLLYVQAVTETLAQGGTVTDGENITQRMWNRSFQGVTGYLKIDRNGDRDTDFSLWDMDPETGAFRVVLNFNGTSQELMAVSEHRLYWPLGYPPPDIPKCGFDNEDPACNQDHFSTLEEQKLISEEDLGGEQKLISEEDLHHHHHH

[8] = molecular target: T2, human NPR1 extracellular domain …; experiment: SPR, mAb captured, 37 C
Description: as §1

[9] = molecular target: T3, monkey NPR1 extracellular domain …; experiment: SPR, mAb captured, 37 C
Description: as §1

Binder	binding result [1]	100 nM Ag Bound (RU) [2]	Kd [2]	koff [2]	kon [2]	t½ [2]	100 nM Ag Bound (RU) [3]	binding result [3]	100 nM Ag Bound (RU) [4]	Kd [4]	koff [4]	kon [4]	t½ [4]	100 nM Ag Bound (RU) [5]	Kd [5]	koff [5]	100 nM Ag Bound (RU) [6]	100 nM Ag Bound (RU) [7]	100 nM Ag Bound (RU) [8]	100 nM Ag Bound (RU) [9]	also measured
B1	no binding	16 RU	482 nM	0.00673 s⁻¹	14000 M⁻¹ s⁻¹	1.7 min	0 RU	no binding (tested: 100 nM)	26 RU	22.4 nM	0.000852 s⁻¹	38000 M⁻¹ s⁻¹	13.6 min	41 RU	246 nM	0.00682 s⁻¹	16 RU	1 RU	47 RU	43 RU	kon [5]: 27700 M⁻¹ s⁻¹; t½ [5]: 1.7 min; Kd [6]: 689 nM; koff [6]: 0.0157 s⁻¹; kon [6]: 22800 M⁻¹ s⁻¹; t½ [6]: 0.7 min; Kd [8]: 41.2 nM; koff [8]: 0.00139 s⁻¹; kon [8]: 33700 M⁻¹ s⁻¹; t½ [8]: 8.3 min; Kd [9]: 360 nM; koff [9]: 0.0142 s⁻¹; kon [9]: 39600 M⁻¹ s⁻¹; t½ [9]: 0.8 min
B2	no binding	22 RU	52.7 nM	0.00167 s⁻¹	31700 M⁻¹ s⁻¹	6.9 min	0 RU	no binding (tested: 100 nM)	49 RU	0.238 nM	4.83e-05 s⁻¹	203000 M⁻¹ s⁻¹	239 min	49 RU	59.8 nM	0.00226 s⁻¹	31 RU	0 RU	43 RU	69 RU	kon [5]: 37800 M⁻¹ s⁻¹; t½ [5]: 5.1 min; Kd [6]: 139 nM; koff [6]: 0.00258 s⁻¹; kon [6]: 18600 M⁻¹ s⁻¹; t½ [6]: 4.5 min; Kd [8]: 7.31 nM; koff [8]: 0.00031 s⁻¹; kon [8]: 42300 M⁻¹ s⁻¹; t½ [8]: 37.3 min; Kd [9]: 139 nM; koff [9]: 0.00384 s⁻¹; kon [9]: 27700 M⁻¹ s⁻¹; t½ [9]: 3 min
B3	no binding	37 RU	37.6 nM	0.000983 s⁻¹	26200 M⁻¹ s⁻¹	11.7 min	0 RU	no binding (tested: 100 nM)	36 RU	1.24 nM	0.000124 s⁻¹	101000 M⁻¹ s⁻¹	92.8 min	81 RU	30.5 nM	0.00128 s⁻¹	51 RU	0 RU	70 RU	106 RU	kon [5]: 42000 M⁻¹ s⁻¹; t½ [5]: 9 min; Kd [6]: 127 nM; koff [6]: 0.00453 s⁻¹; kon [6]: 35600 M⁻¹ s⁻¹; t½ [6]: 2.5 min; Kd [8]: 8.66 nM; koff [8]: 0.000363 s⁻¹; kon [8]: 41900 M⁻¹ s⁻¹; t½ [8]: 31.8 min; Kd [9]: 78.4 nM; koff [9]: 0.00457 s⁻¹; kon [9]: 58300 M⁻¹ s⁻¹; t½ [9]: 2.5 min
B4	no binding	0 RU					0 RU	no binding (tested: 100 nM)	2 RU					0 RU			1 RU	1 RU	8 RU	3 RU	binding result [2]: no binding (tested: 100 nM); binding result [4]: no binding (tested: 100 nM); binding result [5]: no binding (tested: 100 nM)

Reference: US20240309103A1 (Regeneron, published 2024)
